The text below walks through data of paper PMC4543561.

As a reminder, the Km is the concentration of substrate that gives half-maximal velocity. The kcat is the number of substrate molecules converted per active site and unit of time at saturation.

Substrate in data set [1]: C[C@H](CCC(=O)O)[C@H]1CC[C@H]2[C@@H]3CC[C@@H]4CC(=O)CC[C@]4(C)[C@H]3C[C@H](O)[C@]12C
The data set can be described thus: purified protein. Particulars: reduction, 10 mM MOPS pH 7.0, 37 °C.

Substrate in data set [2]: C[C@H](CCC(=O)O)[C@H]1CC[C@H]2[C@@H]3CC[C@@H]4C[C@H](O)CC[C@]4(C)[C@H]3C[C@H](O)[C@]12C
The data set can be described thus: purified protein. The note with it: oxidation, 10 mM MOPS pH 7.0, 37 °C.

B1: Elen_0198 (Eggerthella lenta DSM 2243) (protein)
chain: MYDDLKGKTVVVTGSSKGLGAAMARRFGAEGMNVVANYRSDEEGARETVRAIEEAGGAAAAVQADVSKNECVDALFDAAMFSFGGVDIWVNNAGIEVASPSDRKSIEEWQRVIDVNLTGVFAGCRRAIDHFLDRKMPGVIINLSSVHEIIPWPHFADYAASKAGVGMLTKTLALEYADRGIRVNAIAPGAMNTPINAEKFADPEARAATERLIPMGYVGAPEDVAAAAAWLASDQASYVTGTTLFVDGGMTLYPGFQFGQG
B1: in “purified protein [1]” (cofactor NADH), the Km is listed as 2660 ± 539 µM and the kcat was 9.73 ± 0.583 s⁻¹.

B2: Elen_0690 (Eggerthella lenta DSM 2243) (protein)
chain: MGIYVITGATSGIGAKTAEILRERGHEVVNIDLNGGDINANLATKEGRAGAIAELHERFPEGIDAMICNAGVSGGKVPISLIISLNYFGATEMARGVFDLLEKKGGSCVVTSSNSIAQGAARMDVAGMLNNHADEDRILELVKDVDPAIGHVYYASTKYALARWVRRMSPDWGSRGVRLNAIAPGNVRTAMTANMLPEQRAAMEAIPVPTHFGEEPLMDPVEIANAMAFIASPEASGINGVVLFVDGGTDALLNSEKVY
For B2, in the data set “purified protein [2]” (cofactor NAD+), the Km amounted to 1280 ± 88 µM and the kcat amounted to 4.85 ± 0.117 s⁻¹.

B3: Elen_1325 (Eggerthella lenta DSM 2243) (protein)
chain: MSEARHNPVLAGQTAVITGGASGIGKSIVQRFLEAGASCLAADLNEEALAALKQELAEYGDKLDVVKVDVSNRDDVEGMVDRAVQTFGQMDIIVNNAGIMDNLLPIAEMDDDVWERLMKVNLNSVMYGTRKAVRYFMERGEGGVIINTASLSGLCAGRGGCAYTASKFAVVGLTKNVAFMYADTGIRCNAICPGNTQTNIGVGMRQPSERGMAKATTGYAGATRSGTPEEISAAAAFLASDQAGFINGETLTIDGGWSAY
With B3, in “purified protein [1]” (cofactor NADH), the Km is listed as 2630 ± 365 µM and the catalytic constant (kcat) worked out at 29.2 ± 1.1 s⁻¹.

B4: Rumgna_02133 (Mediterraneibacter gnavus ATCC 29149) (protein)
chain: MFMMLKNKVAIVTGGTRGIGFAVVKKFIENGAAVSLWGSRQETVDQALEQLKELYPDAKISGKYPSLKDTAQVTAMINQVKEEFGAVDILVNNAGISQSTSFYNYQPEEFQKIVDLNVTAVFNCSQAAAKIMKEQGGGVILNTSSMVSIYGQPSGCGYPASKFAVNGLTKSLARELGCDNIRVNAVAPGITRTDMVAALPEAVIKPLIATIPLGRVGEPEDIANAFLFLASDMASYVTGEILSVDGAARS
As to B4, in the data set “purified protein [2]” (cofactor NADP+), the Km was 369 ± 30 µM and the kcat is 1.66 ± 0.0333 s⁻¹.

B5: Rumgna_00694 (Mediterraneibacter gnavus ATCC 29149) (protein)
chain: MNFGGFIMGRFDEKIMLVTGATSGIGRAVAIRAAKEGATVVAVGRNEERGAAVVAAMEEAGGKGEFMKCDVSNKDAVKALFAEIQEKYGKLDVAVNNAGIVGASKTVEELEDDDWFQVIDANLNSCFFCCREEVKLMQPSGGAIVNVSSVAGMRGFPSAAAYVASKHAVSGLTKAVAVDYATKGITCNAICPAGTDTPLTERSSADIKTRMAEIAAQGKDPMEWLKNSMLSGKTETLQKKNATPEEQAATILYFASDEARHITGSIVASDGGFTTY
As for B5, in “purified protein [1]” (cofactor NADPH), the Km was 56.0 ± 5.6 µM and the kcat was determined as 157 ± 4.53 s⁻¹.
